Measured values from paper PMC7710607.

Molecular target: ACSL1 (UniProt P41216)
Assay: GST-TBK1 binding to bead-bound flag-ACSL1
Conditions: reference: ΔC (1-657) wild type; sites S172

mouse TBK1 (mTBK1, GST-TBK1) C-terminal truncated, 1-657 (from UniProt Q9WUN2) ΔC (1-657) S172A
binding against the reference: stronger
